In patent US20120316071A1 (published 2012):
Numbering of substitutions follows the chain as printed. Names may count otherwise.

Legend:
[1] = target: T1, Recombinant Human DLL4 (delta-like protein 4) (human, UniProt Q9NR61 27-524); assay: ELISA, DLL4 coated on plate
T1 construct: Bought recombinant protein (R&D Systems Cat#1506-D4/CF); also called rHuman DLL4

[2] = target: T2, rHuman Notch-1/Fc Chimera (human, UniProt P46531 19-526); assay: ECL (MSD) multispot assay, antigen spotted; blank spot of this row 424
T2 construct: R&D Systems Cat#3647-TK; not shown: Fc of the bought R&D Systems chimera

rHuman CD44/Fc Chimera [3] = target: T3, rHuman CD44/Fc Chimera (human, UniProt P16070 21-220); assay: as above
T3 construct: not shown: Fc of the bought R&D Systems chimera

[4] = target: T4, rHuman P-Cadherin/Fc Chimera (human, UniProt P22223 108-654); assay: as above
T4 construct: R&D Systems Cat#861-PC; not shown: Fc of the bought R&D Systems chimera

[5] = target: T5, rHuman Erythropoietin R/Fc Chimera (human, UniProt P19235 25-250); assay: as above
T5 construct: also called EPO R; EPO R/Fc; not shown: Fc of the bought R&D Systems chimera
T5 sequence (looked up): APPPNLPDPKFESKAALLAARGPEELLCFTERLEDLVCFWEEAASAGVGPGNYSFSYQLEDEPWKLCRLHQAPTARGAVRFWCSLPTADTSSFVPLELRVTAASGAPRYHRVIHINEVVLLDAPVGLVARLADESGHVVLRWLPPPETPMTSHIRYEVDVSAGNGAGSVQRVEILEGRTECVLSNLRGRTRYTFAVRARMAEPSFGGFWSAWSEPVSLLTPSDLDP

[6] = target: T1, Recombinant Human DLL4 (delta-like …); assay: as above
rHuman ErbB2/Fc Chimera [7] = target: T6, rHuman ErbB2/Fc Chimera (human, UniProt P04626 23-652); assay: as above
T6 construct: not shown: Fc of the bought R&D Systems chimera

rHuman EGF R/Fc Chimera [8] = target: T7, rHuman EGF R/Fc Chimera (human, UniProt P00533 25-645); assay: as above
T7 construct: not shown: Fc of the bought R&D Systems chimera

[9] = target: T1, Recombinant Human DLL4 (delta-like …); assay: ECL (MSD) multispot binding assay; value equals DLL4 signal over blank of Table 91
[10] = target: T8, Recombinant Human DLL4 (delta-like protein 4) (human, UniProt Q9NR61 27-524); assay: SPR, Fab on recombinant human DLL4; (±8.5) at r15c5
T8 construct: Bought recombinant protein; also called rHuman DLL4; Delta-like 4

[11] = target: T8, Recombinant Human DLL4 (delta-like …); assay: SPR, Fab on recombinant human DLL4; column head x10^5 applied; (±6.24) at r15c3
[12] = target: T8, Recombinant Human DLL4 (delta-like …); assay: SPR, Fab on recombinant human DLL4; column head x10^-3 applied as printed, but KD x ka implies 0.0717 s^-1 unscaled; (±0.00351) at r15c4
[13] = target: T8, Recombinant Human DLL4 (delta-like …); assay: SPR, Fab on recombinant human DLL4; (±6) at r13c5
[14] = target: T8, Recombinant Human DLL4 (delta-like …); assay: SPR, Fab on recombinant human DLL4; column head x10^5 applied; (±0.6) at r13c3
[15] = target: T8, Recombinant Human DLL4 (delta-like …); assay: SPR, Fab on recombinant human DLL4; column head x10^-3 applied as printed, but KD x ka implies 0.0845 s^-1 unscaled; (±0.0050) at r13c4
[16] = target: T9, Recombinant Human DLL4 (delta-like protein 4) (human, UniProt Q9NR61 27-524); assay: ELISA, Fab on plate-coated recombinant human DLL4
T9 construct: also called rHuman DLL4; Delta-like 4

[17] = target: T9, Recombinant Human DLL4 (delta-like …); assay: ECL (MSD) binding assay, Fab on immobilised recombinant human DLL4
[18] = target: T8, Recombinant Human DLL4 (delta-like …); assay: SPR, Fab on recombinant human DLL4; (±7) at r11c5
[19] = target: T8, Recombinant Human DLL4 (delta-like …); assay: SPR, Fab on recombinant human DLL4; column head x10^5 applied; (±0.092) at r11c3
[20] = target: T8, Recombinant Human DLL4 (delta-like …); assay: SPR, Fab on recombinant human DLL4; column head x10^-3 applied as printed, but KD x ka implies 0.023 s^-1 unscaled; (±0.004) at r11c4
[21] = target: T8, Recombinant Human DLL4 (delta-like …); assay: SPR, Fab on recombinant human DLL4; (±9.3) at r18c5
[22] = target: T8, Recombinant Human DLL4 (delta-like …); assay: SPR, Fab on recombinant human DLL4; column head x10^5 applied; (±4.16) at r18c3
[23] = target: T8, Recombinant Human DLL4 (delta-like …); assay: SPR, Fab on recombinant human DLL4; column head x10^-3 applied as printed, but KD x ka implies 0.101 s^-1 unscaled; (±0.0153) at r18c4
[24] = target: T10, rHuman ErbB2/Fc Chimera, CF (R&D Systems Cat#1129-ER) (human, UniProt P04626 23-652); assay: ECL multispot (MSD) binding assay, antigen spotted on plate, Fab 0.04 uM;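 also: purified Fab incubated 1 h at 20 °C on antigen spots, detected via TAG-labelled antibody, ECL read against each well's blank, with signal-to-blank of at least 4 scored as binder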
T10 construct: Bought recombinant protein; also called human epidermal growth factor 2 receptor; Fc part of the bought chimera not given

[25] = target: T11, rHuman EGF R/Fc Chimera, CF (R&D Systems Cat#344-ER) (human, UniProt P00533 25-645); assay: as above
T11 construct: Bought recombinant protein; also called epidermal growth factor receptor; Fc part of the bought chimera not given

[26] = target: T12, rHuman HGF R/c-MET/Fc Chimera, CF (R&D Systems Cat#358-MT/CF) (human, UniProt P08581 25-932); assay: as above
T12 construct: Bought recombinant protein; also called HGF R/Fc; hepatocyte growth factor receptor; Fc part of the bought chimera not given
T12 sequence (P08581 25-932, change not shown): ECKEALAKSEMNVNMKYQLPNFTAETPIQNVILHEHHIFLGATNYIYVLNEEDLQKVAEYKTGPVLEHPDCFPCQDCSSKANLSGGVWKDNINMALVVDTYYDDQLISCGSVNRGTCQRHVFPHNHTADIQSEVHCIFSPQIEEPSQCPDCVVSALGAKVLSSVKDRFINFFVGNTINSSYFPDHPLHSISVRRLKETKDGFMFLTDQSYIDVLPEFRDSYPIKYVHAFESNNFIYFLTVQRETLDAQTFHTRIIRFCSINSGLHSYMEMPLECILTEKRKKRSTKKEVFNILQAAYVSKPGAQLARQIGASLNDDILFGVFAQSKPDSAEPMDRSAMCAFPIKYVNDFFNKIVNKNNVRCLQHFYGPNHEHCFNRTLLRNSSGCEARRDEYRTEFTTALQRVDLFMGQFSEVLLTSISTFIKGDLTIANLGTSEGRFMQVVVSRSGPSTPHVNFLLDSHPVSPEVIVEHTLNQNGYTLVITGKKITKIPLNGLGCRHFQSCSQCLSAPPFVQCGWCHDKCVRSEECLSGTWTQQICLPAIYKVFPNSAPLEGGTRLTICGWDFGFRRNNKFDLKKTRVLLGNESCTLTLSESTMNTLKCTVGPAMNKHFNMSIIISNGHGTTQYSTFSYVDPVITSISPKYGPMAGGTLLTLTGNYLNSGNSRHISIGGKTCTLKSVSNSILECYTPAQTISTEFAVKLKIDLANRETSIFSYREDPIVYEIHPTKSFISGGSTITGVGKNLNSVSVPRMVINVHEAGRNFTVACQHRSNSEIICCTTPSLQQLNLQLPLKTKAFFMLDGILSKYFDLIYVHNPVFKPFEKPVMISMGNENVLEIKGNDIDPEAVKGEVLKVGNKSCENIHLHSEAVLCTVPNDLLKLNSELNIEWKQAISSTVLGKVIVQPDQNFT

[27] = target: T13, rHuman Notch-1/Fc Chimera, CF (R&D Systems Cat#3647-TK) (human, UniProt P46531 19-526); assay: as above
T13 construct: Bought recombinant protein; Fc part of the bought chimera not given

[28] = target: T14, rHuman CD44/Fc Chimera, CF (R&D Systems Cat#3660-CD) (human, UniProt P16070 21-220); assay: as above
T14 construct: Bought recombinant protein; Fc part of the bought chimera not given

[29] = target: T15, rHuman IGF-1 sR, CF (R&D Systems Cat#391-GR) (human, UniProt P08069 31-932); assay: as above
T15 construct: Bought recombinant soluble receptor; also called insulin-like growth factor-1 soluble receptor

[30] = target: T16, rHuman P-Cadherin/Fc Chimera, CF (R&D Systems Cat#861-PC) (human, UniProt P22223 108-654); assay: as above
T16 construct: Bought recombinant protein; Fc part of the bought chimera not given

[31] = target: T17, rHuman Erythropoietin R/Fc Chimera, CF (R&D Systems Cat#963-ER) (human, UniProt P19235 25-250); assay: as above
T17 construct: Bought recombinant protein; also called EPO R; EPO R/Fc; Fc part of the bought chimera not given
T17 sequence (looked up): T5 sequence (looked up)

[32] = target: T18, Recombinant Human DLL4 (R&D Systems Cat#1506-D4/CF) (human, UniProt Q9NR61 27-524); assay: as above
T18 construct: Bought recombinant protein; also called delta-like protein 4; rHuman DLL4

[33] = target: T2, rHuman Notch-1/Fc Chimera; assay: ECL (MSD) multispot assay, antigen spotted; blank spot of this row 284
rHuman CD44/Fc Chimera [34] = target: T3, rHuman CD44/Fc Chimera; assay: as above
[35] = target: T4, rHuman P-Cadherin/Fc Chimera; assay: as above
[36] = target: T1, Recombinant Human DLL4 (delta-like …); assay: as above
rHuman ErbB2/Fc Chimera [37] = target: T6, rHuman ErbB2/Fc Chimera; assay: as above
rHuman EGF R/Fc Chimera [38] = target: T7, rHuman EGF R/Fc Chimera; assay: as above
[39] = target: T8, Recombinant Human DLL4 (delta-like …); assay: SPR, Fab on recombinant human DLL4; (±200) printed at r9c5; ka and kd printed n/a

B1: Fab VH5-51_IGHD5-18*01>3_IGHJ4*01 G100K/G104T & V3-4_IGLJ1*01 (Fab, V domains shown)
VH: EVQLVQSGAEVKKPGESLKISCKGSGYSFTSYWIGWVRQMPGKGLEWMGIIYPGDSDTRYSPSFQGQVTISADKSISTAYLQWSSLKASDTAMYYCARRKYSYTYDYFDYWGQGTLVTVSS
VL: QTVVTQEPSFSVSPGGTVTLTCGLSSGSVSTSYYPSWYQQTPGQAPRTLIYSTNTRSSGVPDRFSGSILGNKAALTITGAQADDESDYYCVLYMGSGISYVFGTGTKVTVL
notes: Fab made in E. coli (heavy chain vector with CH1, His6 and Flag tags; lambda CL vector); also called KT; H:KT
ELISA (Signal-Noise) [1]: 0 | ECL signal [2]: 543 | ECL signal (rHuman CD44/Fc Chimera [3]): 579 | ECL signal [4]: 319 | ECL signal [5]: 554 | ECL signal [6]: 36400 | ECL signal (rHuman ErbB2/Fc Chimera [7]): 1100 | ECL signal (rHuman EGF R/Fc Chimera [8]): 852 | ECL signal-to-blank ratio [9]: 85.9

B2: Fab VH5-51_IGHD5-18*01>3_IGHJ4*01 G100K/G104T G24T/S28R/G35V & V3-4_IGLJ1*01 (Fab, V domains shown)
VH: B1 VH with G24T, S28R, G35V
VL: B1 VL
notes: Fab made in E. coli; VH was cloned in Plasmid A (CH1, His6 and Flag tags) and VL in Plasmid E (lambda CL); also called KT TRV; H:KT TRV & L:wt
Kd [10]: 36.2 nM | kon [11]: 2.09e+06 M⁻¹ s⁻¹ | koff [12]: 7.17e-05 s⁻¹

B3: Fab VH5-51_IGHD5-18*01>3_IGHJ4*01 G100K/G104T S28R & V3-4_IGLJ1*01 (Fab, V domains shown)
VH: B1 VH with S28R
VL: B1 VL
notes: Fab made in E. coli; VH was cloned in Plasmid A (CH1, His6 and Flag tags) and VL in Plasmid E (lambda CL); also called KT S28R; H:KT S28R & L:wt
Kd [13]: 114 nM | kon [14]: 740000 M⁻¹ s⁻¹ | koff [15]: 8.45e-05 s⁻¹

B4: Fab VH5-51_IGHD5-18*01>3_IGHJ4*01 G100K/G104T (H:KT) & V3-4_IGLJ1*01 G23R (Fab, V domains shown)
VH: B1 VH
VL: B1 VL with G23R
notes: Fab (CH1 with His6/Flag tags from Plasmid A, lambda CL from Plasmid E); also called G100K/G104T & G23R
ELISA signal [16]: 0.11 | ECL signal [17]: 68200

B5: Fab VH5-51_IGHD5-18*01>3_IGHJ4*01 G100K/G104T & V3-4_IGLJ1*01 (Fab, V domains shown)
VH: B1 VH
VL: B1 VL
notes: Fab made in E. coli; VH was cloned in Plasmid A (CH1, His6 and Flag tags) and VL in Plasmid E (lambda CL); also called KT; H:KT & L:wt
Kd [18]: 355 nM | kon [19]: 64500 M⁻¹ s⁻¹ | koff [20]: 2.3e-05 s⁻¹

B6: Fab VH5-51_IGHD5-18*01>3_IGHJ4*01 G100K/G104T G24T/S28R/G35V & V3-4_IGLJ1*01 M94R/S96M (Fab, V domains shown)
VH: B1 VH with G24T, S28R, G35V
VL: B1 VL with M94R, S96M
notes: Fab made in E. coli; VH was cloned in Plasmid A (CH1, His6 and Flag tags) and VL in Plasmid E (lambda CL); also called H:KT TRV & L:RM
Kd [21]: 40.3 nM | kon [22]: 2.53e+06 M⁻¹ s⁻¹ | koff [23]: 0.000101 s⁻¹

B7: Fab VH5-51_IGHD5-18*01>3_IGHJ4*01 G100K/G104T (H:KT) & V3-4_IGLJ1*01 I98A (Fab, V domains shown)
VH: B1 VH
VL: B1 VL with I98A
notes: Fab; Expressed from Plasmid A (CH1, His6 and Flag tags) and Plasmid E (lambda CL); also called KT & I98A
ECL signal [24]: 1380 | ECL signal [25]: 1050 | ECL signal [26]: 1230 | ECL signal [27]: 700 | ECL signal [28]: 708 | ECL signal [29]: 1100 | ECL signal [30]: 359 | ECL signal [31]: 584 | ECL signal [32]: 15100

B8: Fab VH5-51_IGHD5-18*01>3_IGHJ4*01 G100K/G104T D109A & V3-4_IGLJ1*01 (Fab, V domains shown)
VH: B1 VH with D109A
VL: B1 VL
notes: Fab made in E. coli (heavy chain vector with CH1, His6 and Flag tags; lambda CL vector)
ELISA (Signal-Noise) [1]: 0 | ECL signal [33]: 443 | ECL signal (rHuman CD44/Fc Chimera [34]): 538 | ECL signal [35]: 406 | ECL signal [36]: 21800 | ECL signal (rHuman ErbB2/Fc Chimera [37]): 1100 | ECL signal (rHuman EGF R/Fc Chimera [38]): 791 | ECL signal-to-blank ratio [9]: 76.8

B9: Fab VH5-51_IGHD5-18*01>3_IGHJ4*01 & V3-4_IGLJ1*01 (Fab, V domains shown)
VH: B1 VH with K100G, T104G
VL: B1 VL
notes: Germline Fab made in E. coli; also called parental; wildtype
Kd [39]: 4800 nM
